Source: the Immune Epitope Database (IEDB)

Legend:
HLA-B*44:03 = experiment: IEDB peptide-MHC binding, purified MHC/competitive/radioactivity; filed as Kd, often an IC50 or EC50 that approximates it; ≥ and ≤ were set here for values at or beyond the usual limits of such assays
HLA-B*40:01 [1] = experiment: as above
HLA-B*44:02 = experiment: as above
HLA-A*01:01 = experiment: as above
HLA-A*11:01 [2] = experiment: IEDB peptide-MHC binding, purified MHC/direct/fluorescence; filed as Kd, often an IC50 or EC50 that approximates it; ≥ and ≤ were set here for values at or beyond the usual limits of such assays
HLA-B*15:01 = experiment: as above
HLA-A*02:01 = experiment: as above
HLA-A*23:01 = experiment: IEDB peptide-MHC binding, purified MHC/competitive/radioactivity; filed as Kd, often an IC50 or EC50 that approximates it; ≥ and ≤ were set here for values at or beyond the usual limits of such assays
HLA-A*24:02 = experiment: as above
HLA-B*58:01 = experiment: IEDB peptide-MHC binding, purified MHC/direct/fluorescence; filed as Kd, often an IC50 or EC50 that approximates it; ≥ and ≤ were set here for values at or beyond the usual limits of such assays
HLA-B*40:01 [3] = experiment: as above; conditions: source organism: Mammarenavirus juninense
HLA-A*32:01 = experiment: IEDB peptide-MHC binding, purified MHC/competitive/radioactivity; filed as Kd, often an IC50 or EC50 that approximates it; ≥ and ≤ were set here for values at or beyond the usual limits of such assays
HLA-A*30:02 = experiment: as above
HLA-A*03:01 = experiment: IEDB peptide-MHC binding, purified MHC/direct/fluorescence; filed as Kd, often an IC50 or EC50 that approximates it; ≥ and ≤ were set here for values at or beyond the usual limits of such assays
HLA-A*69:01 = experiment: as above
HLA-A*26:01 = experiment: IEDB peptide-MHC binding, purified MHC/competitive/radioactivity; filed as Kd, often an IC50 or EC50 that approximates it; ≥ and ≤ were set here for values at or beyond the usual limits of such assays
HLA-A*11:01 [4] = experiment: as above; conditions: source organism: Dengue virus 1 Brazil/97-11/1997
[5] = source organism: Dengue virus 2 Jamaica/1409/1983
[6] = source organism: Dengue virus 4 Philippines/H241/1956
[7] = source organism: Dengue virus 2 Peru/IQT2913/1996
[8] = source organism: Dengue virus 3 Martinique/1243/1999
[9] = source organism: Dengue virus 1 Brazil/97-11/1997
[10] = source organism: Vaccinia virus WR
[11] = source organism: Burkholderia ambifaria AMMD
[12] = source organism: Dengue virus 1 Nauru/West Pac/1974
[13] = source organism: Mycobacterium tuberculosis
[14] = source organism: Rickettsia conorii
[15] = source organism: Cryptosporidium parvum
[16] = source organism: Giardia lamblia ATCC 50803
[17] = source organism: Mammarenavirus brazilense
[18] = source organism: Salmonella enterica subsp. enterica serovar Typhimurium

Sequence KEIGRMLNI has a Kd (HLA-B*44:03; [5]) of 417 nM, a Kd (HLA-B*40:01 [1]; [5]) of 216 nM and a Kd (HLA-B*44:02; [5]) of 418 nM.

SLDRKEFEEY gave a Kd (HLA-A*01:01; [6]) of 1050 nM.

Work on ATFLWWIPL yielded a Kd (HLA-A*11:01 [2]; source organism: Bacillus anthracis) of 12.4 nM.

Sequence FHMDPSGTF has a Kd (HLA-B*15:01; source organism: Homo sapiens) of 465 nM and a Kd (HLA-A*02:01; source organism: Homo sapiens) of 14400 nM.

For NELPESLETL, the Kd (HLA-B*40:01 [1]; [6]) was 246 nM.

Sequence IEKASFIEV has a Kd (HLA-B*40:01 [1]; [7]) of 4040 nM.

In the case of METLLLLGL, the Kd (HLA-B*44:03; [8]) is reported as 33.2 nM, the Kd (HLA-B*40:01 [1]; [8]) is reported as 81.3 nM and the Kd (HLA-B*44:02; [8]) is reported as 8.98 nM.

Sequence SWALCEALTL has a Kd (HLA-A*23:01; [8]) of 429 nM and a Kd (HLA-A*24:02; [8]) of 500 nM.

In the case of TENILTVLL, the Kd (HLA-B*44:03; [8]) is reported as 351 nM, the Kd (HLA-B*40:01 [1]; [8]) is reported as 12.2 nM and the Kd (HLA-B*44:02; [8]) is reported as 0.409 nM.

Sequence LEELGDGLAM has a Kd (HLA-B*40:01 [1]; [9]) of 51.2 nM.

SSVSSFERF showed a Kd (HLA-B*58:01; source organism: Influenza A virus (A/camel/Mongolia/1982(H1N1))) of 72.5 nM.

Sequence TEEAFKIGL has a Kd (HLA-B*40:01 [3]) of 0.3 nM.

IINKFFEVI showed a Kd (HLA-A*32:01; [10]) of 11.1 nM.

For GVPPLPLFIF, the Kd (HLA-A*24:02; [8]) was 494 nM.

Sequence KEENMVKSL has a Kd (HLA-B*40:01 [1]; [8]) of 156 nM.

With HEEPVPMSTY the Kd (HLA-B*44:03; [8]) was 409 nM and the Kd (HLA-B*44:02; [8]) was 106 nM.

YQGKTVWFVP was tested, and the Kd (HLA-A*32:01; [6]) was 8500 nM.

With LFKTNTGTI the Kd (HLA-A*24:02; [5]) was 1280 nM.

In the case of GSPGKFWNTT, the Kd (HLA-A*32:01; [9]) is reported as ≥ 25700 nM.

For WLVHKQWFLD, the Kd (HLA-A*32:01; [9]) was 2070 nM.

EEALKGLPI showed a Kd (HLA-B*40:01 [1]; [8]) of 3380 nM.

Sequence GVSGGSWVDI has a Kd (HLA-A*32:01; [5]) of 4310 nM.

With SICEIVYSF the Kd (HLA-A*32:01; [10]) was 0.352 nM.

In the case of AYMIGQTGI, the Kd (HLA-A*24:02; [6]) is reported as 93 nM.

For NRKGKVIGLY, the Kd (HLA-A*30:02; [6]) was 109 nM.

TLYNHHRQY showed a Kd (HLA-A*03:01; source organism: Burkholderia mallei) of 46 nM.

LKIVRNMEKY was tested, and the Kd (HLA-A*30:02; [5]) was 55.2 nM.

In the case of YLNGGRRGY, the Kd (HLA-A*69:01; [11]) is reported as ≥ 20000 nM and the Kd (HLA-A*02:01; [11]) is reported as ≥ 20000 nM.

EAILPEYGTL was tested, and the Kd (HLA-A*26:01; [8]) was 13900 nM.

In the case of ASDRMGMGV, the Kd (HLA-A*01:01; [8]) is reported as 1370 nM.

AGILKRWGQL was tested, and the Kd (HLA-A*32:01; [6]) was 4440 nM.

KEAKMLLDNI showed a Kd (HLA-B*44:03; [5]) of 1760 nM.

AALLLLVAHY was tested, and the Kd (HLA-A*30:02; [5]) was 10500 nM.

With VAGGLLTVCY the Kd (HLA-A*01:01; [5]) was ≥ 37000 nM and the Kd (HLA-A*30:02; [5]) was 108 nM.

In the case of LTSKELMMA, the Kd (HLA-A*01:01; [5]) is reported as 5730 nM.

IFGTAYGVLF gave a Kd (HLA-A*23:01; [12]) of 10.4 nM and a Kd (HLA-A*24:02; [12]) of 37.6 nM.

Sequence KALKLSWFKK has a Kd (HLA-A*32:01; [9]) of 9280 nM and a Kd (HLA-A*11:01 [4]) of 135 nM.

With EHALLATSIF the Kd (HLA-A*26:01; [9]) was ≥ 22400 nM and the Kd (HLA-A*23:01; [9]) was 4610 nM.

DINFITVNI showed a Kd (HLA-A*32:01; [10]) of 424 nM.

With NKAWMVHRQW the Kd (HLA-B*44:02; [8]) was 12600 nM.

ETLLLLTLLA was tested, and the Kd (HLA-A*26:01; [5]) was ≥ 22700 nM.

Sequence YTQLRFPKK has a Kd (HLA-A*11:01 [2]; [13]) of 4.3 nM and a Kd (HLA-A*03:01; [13]) of 493 nM.

AFLPWHRLF gave a Kd (HLA-A*24:02; source organism: Homo sapiens) of 20 nM.

KILLVAVSI showed a Kd (HLA-A*32:01; source organism: Vaccinia virus Copenhagen) of 1.54 nM.

Work on IIMFDAEKL yielded a Kd (HLA-A*69:01; [14]) of 1110 nM and a Kd (HLA-B*15:01; [14]) of 3350 nM.

For KMFNSVGGA, the Kd (HLA-A*69:01; [15]) was ≥ 20000 nM and the Kd (HLA-A*02:01; [15]) was 26 nM.

RLVDSIVSW showed a Kd (HLA-B*58:01; source organism: Influenza A virus (A/Istanbul/CTF/10/2004(H3N2))) of 49.1 nM.

IIIFFIVLI was tested, and the Kd (HLA-A*32:01; [10]) was 13.7 nM.

In the case of NGVVTKNGGY, the Kd (HLA-A*30:02; [8]) is reported as 15500 nM.

SLNPYYQSY was tested, and the Kd (HLA-A*69:01; [16]) was ≥ 20000 nM and the Kd (HLA-A*02:01; [16]) was ≥ 20000 nM.

Work on AICSAVPVDW yielded a Kd (HLA-B*44:02; [9]) of 893 nM.

With TVITPMLRH the Kd (HLA-A*26:01; [8]) was 14300 nM.

With EYPKTKLTDW the Kd (HLA-A*23:01; [6]) was 2550 nM and the Kd (HLA-A*24:02; [6]) was 954 nM.

NALKINWYKK gave a Kd (HLA-A*32:01; [8]) of 2140 nM.

For EYQKTKNNDW, the Kd (HLA-A*23:01; [9]) was ≥ 33600 nM and the Kd (HLA-A*24:02; [9]) was 19700 nM.

For RSCTLPPLRF, the Kd (HLA-A*23:01; [9]) was 2520 nM and the Kd (HLA-A*24:02; [9]) was 10700 nM.

KLALITVSG was tested, and the Kd (HLA-A*32:01; [6]) was 82.8 nM.

In the case of EYVKTRTNDW, the Kd (HLA-A*23:01; [7]) is reported as 3410 nM and the Kd (HLA-A*24:02; [7]) is reported as 2170 nM.

For LTARATWATN, the Kd (HLA-A*32:01; [9]) was ≥ 44400 nM.

With ITINYFLLL the Kd (HLA-A*32:01; [10]) was ≥ 77800 nM.

In the case of EVTARWLWGF, the Kd (HLA-A*26:01; source organism: Dengue virus 1 Singapore/S275/1990) is reported as 32.7 nM.

IESQKNGSW was tested, and the Kd (HLA-B*44:03; [8]) was 166 nM and the Kd (HLA-B*44:02; [8]) was 452 nM.

With MTGTLAVFLL the Kd (HLA-A*01:01; [9]) was ≥ 34600 nM.

In the case of GYKETPFLT, the Kd (HLA-A*26:01; [17]) is reported as ≥ 77900 nM, the Kd (HLA-A*01:01; [17]) is reported as ≥ 65200 nM and the Kd (HLA-A*30:02; [17]) is reported as ≥ 76900 nM.

Sequence ELLSHVGQA has a Kd (HLA-A*69:01; [18]) of 63.1 nM and a Kd (HLA-A*02:01; [18]) of 3590 nM.
